Like-named read-outs stand apart in the source and are kept apart here.
System: T1, JUL1 (bead-immobilized for Kd assay) (Arabidopsis thaliana)
T1 sequence: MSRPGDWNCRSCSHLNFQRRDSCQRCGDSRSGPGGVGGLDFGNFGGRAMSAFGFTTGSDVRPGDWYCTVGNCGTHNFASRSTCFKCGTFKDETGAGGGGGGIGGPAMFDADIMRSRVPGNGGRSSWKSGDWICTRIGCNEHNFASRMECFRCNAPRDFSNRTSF
Details: FAM-RNA bead fluorescence assay

SMXL5 5' UTR G-quadruplex-forming motif
Kd (with potassium (folded G4)): 230 nM
Kd (without potassium): 130 nM

Reference: patent US20210115458
